The values below come from patent publication US20210277109A1 (SYSTIMMUNE, published 2021).

The target of assay [1] is T1, human ROR1 'Frizzled-Kringle domain' (human, UniProt Q01973).
T1 construct: used plain or biotinylated
The experiment in a line: ELISA, biotinylated antigen on avidin plate; BCC supernatant.

Assay [2] deals with T2, human ROR1 'Ig-Frizzled domain' (human, UniProt Q01973).
T2 construct: used plain or biotinylated
Described as above.

Assay [3] has as its target mouse ROR1 (serum titer ELISA antigen) (mouse, UniProt Q9Z139 30-403, limits assumed). The experiment in a line: ELISA, direct coat; BCC supernatant.
Assay [4] addresses T3, Human ROR2 (human, UniProt Q01974). The experiment in a line: ELISA, direct coat; BCC supernatant.
The target of assay [5] is T4, recombinant human ROR1 extracellular domain protein (human, UniProt Q01973 30-406).
T4 construct: extracellular domain; Analyte in solution in the Octet assay; also called human ROR1 ECD
The experiment in a line: ELISA, direct coat; BCC supernatant.

Assay [6] addresses T1, human ROR1 'Frizzled-Kringle domain'. Description: ELISA, direct coat; BCC supernatant.
Assay [7] addresses T2, human ROR1 'Ig-Frizzled domain'. The experiment in a line: ELISA, direct coat; BCC supernatant.
Assay [8] has as its target T3, Human ROR2. Description: Octet.
Assay [9] addresses T4, recombinant human ROR1 extracellular …. Description: Octet, mono-valent binding to human ROR1. The text has this:
The heavy and light chain expression plasmids generated from each well were transiently co-transfected to produce rabbit/human chimeric antibodies. Recombinant antibody supernatants were confirmed to contain anti-ROR1 antibodies using bio-layer interferometry analysis on a ForteBio Octet Red 96 instrument. Anti-human Fc biosensors (Pall ForteBio) were used to capture antibodies in the supernatants. Association to ROR1 was observed by real-time interferometry by placing the biosensors in wells containing recombinant human ROR1 extracellular domain protein. Dissociation was measured after transfer of the biosensors into wells containing 10× kinetics buffer (Pall ForteBio). The software provided by the manufacturer was used to analyze the interferometry data.

Assay [10] shares this target. Description: Octet, monovalent binding to human ROR1.
The next assay has as its target T5, Human ROR1-CHO cells (human, UniProt Q01973).
T5 construct: expressed on the surface of CHO cells; also called human ROR1 on CHO cells
The experiment in a line: FACS; BCC supernatant.

T5 sequence (Q01973 30-937 limits assumed): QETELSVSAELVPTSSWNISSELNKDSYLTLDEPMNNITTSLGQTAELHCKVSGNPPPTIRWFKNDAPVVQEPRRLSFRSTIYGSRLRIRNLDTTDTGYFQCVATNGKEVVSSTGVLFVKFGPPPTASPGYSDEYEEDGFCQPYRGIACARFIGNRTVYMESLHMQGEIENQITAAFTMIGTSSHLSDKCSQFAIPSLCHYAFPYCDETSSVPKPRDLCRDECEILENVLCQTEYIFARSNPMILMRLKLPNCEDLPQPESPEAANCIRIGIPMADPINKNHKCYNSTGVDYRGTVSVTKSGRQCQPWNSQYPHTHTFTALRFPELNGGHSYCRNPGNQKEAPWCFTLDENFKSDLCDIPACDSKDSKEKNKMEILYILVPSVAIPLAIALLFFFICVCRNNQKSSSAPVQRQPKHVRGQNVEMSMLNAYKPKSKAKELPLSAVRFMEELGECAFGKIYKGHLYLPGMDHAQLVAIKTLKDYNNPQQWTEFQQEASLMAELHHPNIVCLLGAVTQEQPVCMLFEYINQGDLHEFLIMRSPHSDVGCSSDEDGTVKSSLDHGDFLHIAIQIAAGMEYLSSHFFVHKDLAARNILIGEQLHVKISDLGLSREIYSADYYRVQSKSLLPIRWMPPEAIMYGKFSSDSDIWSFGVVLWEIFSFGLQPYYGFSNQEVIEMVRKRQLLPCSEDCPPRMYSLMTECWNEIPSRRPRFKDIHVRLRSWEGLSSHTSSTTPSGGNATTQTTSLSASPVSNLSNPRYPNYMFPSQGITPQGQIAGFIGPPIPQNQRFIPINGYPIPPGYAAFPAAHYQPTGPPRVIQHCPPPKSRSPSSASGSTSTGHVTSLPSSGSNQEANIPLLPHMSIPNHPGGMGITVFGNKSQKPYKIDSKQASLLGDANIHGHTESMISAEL
Sequence of mouse ROR1 (serum titer ELISA antigen) (Q9Z139 30-403 limits assumed): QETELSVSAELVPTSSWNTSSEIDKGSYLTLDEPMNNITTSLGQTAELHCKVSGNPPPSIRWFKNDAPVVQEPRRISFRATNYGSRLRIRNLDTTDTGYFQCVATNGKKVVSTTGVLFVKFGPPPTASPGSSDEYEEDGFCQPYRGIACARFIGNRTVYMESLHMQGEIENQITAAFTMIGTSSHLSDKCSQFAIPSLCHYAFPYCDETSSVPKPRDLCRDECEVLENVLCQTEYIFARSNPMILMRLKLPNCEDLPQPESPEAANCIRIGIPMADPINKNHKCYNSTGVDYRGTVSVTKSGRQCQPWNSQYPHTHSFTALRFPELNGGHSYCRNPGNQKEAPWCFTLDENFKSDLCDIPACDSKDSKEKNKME
T1 sequence (Q01973 165-406 limits assumed): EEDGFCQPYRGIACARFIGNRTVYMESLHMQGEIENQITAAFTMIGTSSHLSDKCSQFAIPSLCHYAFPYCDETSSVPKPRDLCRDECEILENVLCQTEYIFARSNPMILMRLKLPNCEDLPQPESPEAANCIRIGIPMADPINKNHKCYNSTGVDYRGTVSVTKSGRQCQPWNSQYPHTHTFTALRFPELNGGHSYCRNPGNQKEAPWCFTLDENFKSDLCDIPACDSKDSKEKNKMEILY
T4 sequence (Q01973 30-406): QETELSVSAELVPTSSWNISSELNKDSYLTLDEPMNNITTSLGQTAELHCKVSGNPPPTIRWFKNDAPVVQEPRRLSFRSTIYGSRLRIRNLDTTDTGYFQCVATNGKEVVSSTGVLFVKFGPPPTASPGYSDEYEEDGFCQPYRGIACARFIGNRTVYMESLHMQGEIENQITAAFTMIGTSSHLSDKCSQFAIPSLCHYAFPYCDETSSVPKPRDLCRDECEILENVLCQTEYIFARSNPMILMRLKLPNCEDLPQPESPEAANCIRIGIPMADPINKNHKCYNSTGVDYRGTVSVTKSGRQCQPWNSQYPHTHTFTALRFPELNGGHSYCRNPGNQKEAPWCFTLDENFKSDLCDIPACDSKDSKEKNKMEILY
T2 sequence (Q01973 30-305 limits assumed): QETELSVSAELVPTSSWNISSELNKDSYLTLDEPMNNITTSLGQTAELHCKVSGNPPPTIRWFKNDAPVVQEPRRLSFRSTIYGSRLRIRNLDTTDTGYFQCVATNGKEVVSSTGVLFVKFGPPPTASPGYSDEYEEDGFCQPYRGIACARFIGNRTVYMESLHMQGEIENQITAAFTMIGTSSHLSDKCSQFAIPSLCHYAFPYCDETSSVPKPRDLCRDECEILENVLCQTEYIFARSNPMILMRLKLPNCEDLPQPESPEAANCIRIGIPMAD
T3 sequence (Q01974 34-403 limits assumed): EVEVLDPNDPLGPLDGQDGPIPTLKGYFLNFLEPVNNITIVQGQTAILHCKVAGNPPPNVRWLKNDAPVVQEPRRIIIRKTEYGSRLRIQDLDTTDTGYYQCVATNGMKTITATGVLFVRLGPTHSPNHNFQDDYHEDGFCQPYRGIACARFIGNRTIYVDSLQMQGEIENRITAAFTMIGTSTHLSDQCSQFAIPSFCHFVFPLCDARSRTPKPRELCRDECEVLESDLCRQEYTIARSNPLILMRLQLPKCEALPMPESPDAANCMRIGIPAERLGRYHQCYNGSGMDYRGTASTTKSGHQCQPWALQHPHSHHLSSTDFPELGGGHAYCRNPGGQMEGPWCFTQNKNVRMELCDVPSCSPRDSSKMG

B1: 338H4 (antibody, V domains shown)
VH: QSVEESGGRLVTPGTPLTLTCTVSGFSLSSYAMSWVRQAPGRGLEWIGIIYASGSTYYASWAKGRFTISKTSTTVDLKITSPTTEDTATYFCARIYDGMDLWGPGTLVTVSS
VL: DIVMTQTPASVSAAVGGTVTINCQASQNIYSYLSWYQQKPGQPPKRLIYLASTLASGVPSRFKSSGSGTEYTLTISDLECDDAATYYCQSNYNGNYGFGGGTEVEVK
notes: chimeric counterpart m8; also called rabbit IgG of BCC well 338H4
For the molecule B1, the “ELISA OD450” value in [1] is 1.8 OD450; in assay [2] it was 0.22 OD450; in [3], 4 OD450; with Human ROR2 [4], 0.17 OD450; in assay [5], 4 OD450; in assay [6], 3.01 OD450. For the same molecule, the “ELISA OD450” value in [7] was determined as 2.77 OD450.

B2: 338H4 chimeric rabbit/human IgG antibody (antibody, V domains shown)
VH: QSVEESGGRLVTPGTPLTLTCTVSGFSLSSYAMSWVRQAPGRGLEWIGIIYASGSTYYASWAKGRFTISKTSTTVDLKITSPTTEDTATYFCARIYDGMDLWGPGTLVTVSS
VL: DIVMTQTPASVSAAVGGTVTINCQASQNIYSYLSWYQQKPGQPPKRLIYLASTLASGVPSRFKSSGSGTEYTLTISDLECDDAATYYCQSNYNGNYGFGGGTEVEVKR
notes: Rabbit variable regions on human gamma-1 and human kappa constant domains
Turning to B2, in the assay with Human ROR2 [8], the binding result is recorded as “no binding”. Also, the dissociation rate constant (koff) in [9] was determined as 1.17e-08 s⁻¹.

B3: 330F11 humanized antibody (antibody, human IgG1, kappa, V domains shown)
VH: EVQLVESGGGLVQPGGSLRLSCAASGFSLNNYWMSWVRQAPGKGLEWIGTISSGAYTWFATWATGRFTISRDNSKNTLYLQMNSLRAEDTAVYYCARYSSTTDWTYFNIWGQGTLVTVSS
VL: DIQMTQSPSTLSASVGDRVTITCQASQSINNYLAWYQQKPGKAPKLLIYRASTLESGVPSRFSGSGSGTEFTLTISSLQPDDFATYYCQSYNGVGRTAFGGGTKVEIKR
notes: Human gamma-1 and human kappa constant domains
With B3, the koff in [10] came out at 0.0297 s⁻¹.

B4: 324C7 (antibody, V domains shown)
VH: QSVEESGGRLVTPGTPLTLTCTVSGFSLSGAGVSWVRQAPGKGLEWIGYIDSGATTYYASWAKGRFTISKASTTVDLKIASPTTEDTATYFCARGYYGMDPWGQGTLVTVSS
VL: DIVMTQTPASVEVAVGGTVTIKCQASQNIGSDLAWYQQKPGQPPKLLIYTTSNLASGVPSRFKGSGSGTGFTLTISDLECADAASYCCQGGYFSGRNIYGNAFGGGTEVVVK
notes: chimeric counterpart m4; also called rabbit IgG of BCC well 324C7
As for B4, in the assay with Human ROR1-CHO cells, the “FACS MFI” value was 190 MFI. The “ELISA OD450” value is 0.13 OD450 in assay [1]; 2.67 OD450 in assay [2]; 0.21 OD450 in assay [3]; 0.18 OD450 with Human ROR2 [4]; 2.74 OD450 in [5]; 0.13 OD450 in assay [6]. The “ELISA OD450” value in assay [7] came out at 2.46 OD450. In addition, the binding result in [3] is “no binding”.

B5: 324C6 humanized antibody (antibody, human IgG1, kappa, V domains shown)
VH: QSLVESGGGLVQPGGSLRLSCTASGFSLSRYYMTWVRQAPGKGLEWIGTIYTSGSTWYASWTKGRFTISKDNTKNTVDLQMNSLRAEDTAVYYCARSYYGGDKTGLGIWGQGTLVTVSS
VL: DIQMTQSPSTLSASVGDRVTITCQASQSIDSWLSWYQQKPGKAPKLLIYQASTLASGVPSRFSGSGSGTEFTLTISSLQPDDFATYYCQSAYGVSGTSSYLYTFGGGTKVEIKR
notes: as for B3
As for B5, in assay [10], the koff was determined as 0.0403 s⁻¹.

B6: 324E2 humanized antibody (antibody, human IgG1, kappa, V domains shown)
VH: QSVEESGGGLVQPGGSLRLSCTASGFSLSNNAITWVRQAPGKGLEYIGIISSSGTTYYASSAKGRFTISKDTSKNTVDLQMNSLRAEDTAVYYCAGAFSVWGQGTLVTVSS
VL: DIQMTQSPSSLSASVGDRVTITCQSSQSVNNNDLAWYQQKPGKAPKRLIYWASKLASGVPSRFSGSGSGTEFTLTISNLQPEDFATYYCAGGYSGNIYGFGGGTKVEIKR
notes: as for B3
B6: the off-rate (koff) in [10] came out at 0.0061 s⁻¹.

B7: 338H4 humanized antibody (antibody, human IgG1, kappa, V domains shown)
VH: EVQLVESGGGLVQPGGSLRLSCTASGFSLSSYAMSWVRQAPGRGLEWIGIIYASGSTYYASSAKGRFTISKDNTKNTVDLQMNSLRAEDTAVYYCARIYDGMDLWGQGTLVTVSS
VL: DIQMTQSPSSLSASVGDRVTINCQASQNIYSYLSWYQQKPGKVPKRLIYLASTLASGVPSRFSGSGSGTDYTLTISSLQPEDVATYYCQSNYNGNYGFGGGTKVEIKR
notes: as for B3
B7: in assay [10], the koff amounted to 0.00238 s⁻¹.

B8: 226E12 humanized antibody (antibody, human IgG1, kappa, V domains shown)
VH: EVQLLESGGGLVQPGGSLRLSCAASGFSLSNYYMSWVRQAPGKGLEWIGAINADSDNTWYPSWVKGRFTISRDNSKNTLYLQMNSLRAEDTAVYYCARSVSNNFAEYNIWGQGTLVTVSS
VL: DIQMTQSPSSLSASVGDRVTITCQASQRIYSYLAWYQQKPGKVPKLLIYRASTLASGVPSRFSGSGSGTDFTLTISSLQPEDVATYYCQQGASMVDVENMFGGGTKVEIKR
notes: as for B3
In the case of B8, in assay [10], the koff was determined as 0.0415 s⁻¹.

B9: 323H7 (antibody, V domains shown)
VH: QEQLKESGGGLVTPGGTLTLTCTASGFTISRYHMTWVRQAPGKGLEWIGHIYVNNDDTDYASWAKGRFTISKTSTTVDLKITSPTTEDTATYFCARLDVGGGGAYIGDIWGQGTLVTVSS
VL: QAVVTQTPSSVSAAVGGTVTISCQSSQSVYNNNDLAWYQQKPGQPPKLLIYYASTLASGVSSRFKGSGSGTQFTLAISDLECDDSATYYCAGGYDTDGLDTFAFGGGTEVEVK
notes: chimeric counterpart m3; also called rabbit IgG of BCC well 323H7
Consider B9, for which the “FACS MFI” value with Human ROR1-CHO cells is 90 MFI. In addition, the “ELISA OD450” value was found to be 0.16 OD450 in assay [1]; 1.78 OD450 in assay [2]; 0.2 OD450 in assay [3]; 0.18 OD450 with Human ROR2 [4]; 1.82 OD450 in assay [5]; 0.16 OD450 in assay [6]. Further, in assay [7], the “ELISA OD450” value was 1.67 OD450. For the same molecule, the binding result in assay [3] is reported as “no binding”.

B10: 330F11 (antibody, V domains shown)
VH: QSVEESGGRLVTPGTPLTLTCTVSGFSLNNYWMSWVRQAPGEGLEWIGTISSGAYTWFATWATGRFTISKTSTTVDLSITSPTTEDTATYFCARYSSTTDWTYFNIWGPGTLVTVSS
VL: DVVMTQTPASVEAAVGGTVTIKCQASQSINNYLAWYQQKPGQPPKLLIYRASTLESGVPSRFKGSGSGTQFTLTISDLECADAATYYCQSYNGVGRTAFGGGTEVEFK
notes: chimeric counterpart m9; also called rabbit IgG of BCC well 330F11
Turning to B10, the “FACS MFI” value with Human ROR1-CHO cells was 5 MFI. For the same molecule, the “ELISA OD450” value in assay [1] was 1.71 OD450; in [2] it was 0.15 OD450; in [3] it was 4 OD450; with Human ROR2 [4], 0.25 OD450; in [5] it was 0.98 OD450; in assay [6] it was 1.98 OD450. The “ELISA OD450” value in assay [7] was 0.28 OD450.

B11: 324C6 (antibody, V domains shown)
VH: QSLEESGGRLVTPGTPLTLTCTASGFSLSRYYMTWVRQAPGKGLEWIGTIYTSGSTWYASWTKGRFTISKTSTTVDLKITSPTTEDTATYFCARSYYGGDKTGLGIWGPGTLVTVSS
VL: DVVMTQTPASVEAAVGGTVTIKCQASQSIDSWLSWYQQKPGQPPKLLIYQASTLASGVSSRFKGSGSGTEFTLTISDLECADAATYYCQCAYGVSGTSSYLYTFGGGTEVEVK
notes: chimeric counterpart m7; also called rabbit IgG of BCC well 324C6
On to B11, for which the “ELISA OD450” value in the assay with Human ROR2 [4] was 0.17 OD450.

B12: 324C6 chimeric rabbit/human IgG antibody (antibody, V domains shown)
VH: QSLEESGGRLVTPGTPLTLTCTASGFSLSRYYMTWVRQAPGKGLEWIGTIYTSGSTWYASWTKGRFTISKTSTTVDLKITSPTTEDTATYFCARSYYGGDKTGLGIWGPGTLVTVSS
VL: DVVMTQTPASVEAAVGGTVTIKCQASQSIDSWLSWYQQKPGQPPKLLIYQASTLASGVSSRFKGSGSGTEFTLTISDLECADAATYYCQCAYGVSGTSSYLYTFGGGTEVEVKR
notes: as for B2
B12: the binding result with Human ROR2 [8] was “no binding”.

B13: 323H7 humanized antibody (antibody, human IgG1, kappa, V domains shown)
VH: EVQLLESGGGLVQPGGSLRLSCAASGFTISRYHMTWVRQAPGKGLEWIGHIYVNNDDTDYASSAKGRFTISRDNSKNTLYLQMNSLRAEDTATYFCARLDVGGGGAYIGDIWGQGTLVTVSS
VL: DIQMTQSPSSLSASVGDRVTITCQSSQSVYNNNDLAWYQQKPGKVPKLLIYYASTLASGVPSRFSGSGSGTDFTLTISSLQPEDVATYYCAGGYDTDGLDTFAFGGGTKVEIKR
notes: as for B3
As to B13, the koff in assay [10] was 0.0007 s⁻¹.

B14: 323D10 humanized antibody (antibody, human IgG1, kappa, V domains shown)
VH: EVQLVESGGGLVQPGGSLRLSCTASGFSLSRNAMNWVRQAPGKGLEYIGYISTSGTTFYANSVKGRFTISKDNTKNTVDLQMNSLRAEDTAVYYCARDYNYAMDIWGQGTLVTVSS
VL: AIDLTQSPSTLSASVGGTITINCQASESISSWLAWYQQKPGKAPKLLIYETSKLASGVPSRFSGSGSGTEFTLTISSLQPDDFATYYCQSYYRINNIGYDNAFGGGTKVEIKR
notes: as for B3
For the molecule B14, the dissociation rate constant (koff) in [10] worked out at 0.00424 s⁻¹.
